Experimental data taken from patent publication US9766240B2, “Method of identifying a compound for treating a hypoxic or ischemic related disorder” (Dana Farber Cancer Institute, Inc., priority 2001, dated 2017).
Square brackets hold non-standard residues; d marks the D form. Ends that are not written are not given here. Hyp = O=C(O)[C@@H]1C[C@@H](O)CN1

Tests used:
HIF bound to HA-pVHL = target: T1, HIF bound to HA-pVHL (Homo sapiens, UniProt P40337); assay: Peptide elution of HIF coimmunoprecipitated with HA-pVHL from ts20 cells; assay type: binding; settings: 7 μg of peptide in 65 μl PBS
T1 construct: expressed in transfected cells; host or cells: ts20 cells stably transfected with pIRES-HA-VHL
Protocol: Individual G418-resistant colonies were isolated using cloning cylinders and expanded. Cells producing HA-VHL or HA-VHL (Y98H) were identified by anti-HA immunoblot analysis. […] For the tests shown in FIG. 7C, ts20 cells were grown at the restrictive or permissive temperature for 14 hour, methionine-starved for 90 min, and then grown in the methionine-free media supplemented with ^35S-met ([…]) for 90 min.

pVHL = target: T2, pVHL (Homo sapiens, UniProt P40337); assay: Binding of 35S-labeled pVHL to immobilized biotinylated HIF (556-575) peptides; settings: peptide on monomeric avidin Sepharose, autoradiography
T2 construct: made in house; host or cells: coupled in vitro transcription/translation (TNT kit, Promega)
T2 sequence (P40337 whole entry): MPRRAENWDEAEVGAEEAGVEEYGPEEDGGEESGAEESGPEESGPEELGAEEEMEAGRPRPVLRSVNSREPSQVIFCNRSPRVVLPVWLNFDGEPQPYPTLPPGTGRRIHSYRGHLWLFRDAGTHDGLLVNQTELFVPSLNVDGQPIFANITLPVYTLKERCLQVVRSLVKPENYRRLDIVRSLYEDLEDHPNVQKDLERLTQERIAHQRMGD

T1 sequence (P40337 whole entry): as above
T1 sequence (P62869 whole entry partner): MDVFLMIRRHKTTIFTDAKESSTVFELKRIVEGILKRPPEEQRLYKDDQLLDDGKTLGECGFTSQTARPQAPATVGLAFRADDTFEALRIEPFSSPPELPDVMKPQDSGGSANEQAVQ
T1 sequence (P83940 whole entry partner): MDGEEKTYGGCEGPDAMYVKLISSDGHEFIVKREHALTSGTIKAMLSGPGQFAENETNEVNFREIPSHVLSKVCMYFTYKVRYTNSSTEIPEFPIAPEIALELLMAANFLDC

“HIF (556-575) Pro564Ala peptide: HIF1α 556-575 peptide with Pro564 replaced by alanine (DLDLEMLAAYIPMDDDFQLR)” was tested, and the “elution of HIF bound to HA-pVHL” value (HIF bound to HA-pVHL) was “not eluted”.

In the case of “HIF (556-575) peptide with the Leu562Ala substitution and hydroxyproline at residue 564: HIF1α 556-575 peptide, Leu562Ala, hydroxyproline at 564 (DLDLEMAA[Hyp]YIPMDDDFQLR)”, the “binding to pVHL” value (pVHL) is reported as “pVHL bound”.
